Experimental data taken from publication PMC3842537.

B1: thrombin aptamer (TASSET) (structured_DNA)
DNA: AGTCCGTGGTAGGGCAGGTTGGGGTGACT
B2: PDGF aptamer (structured_DNA)
DNA: CAGGCTACGGCACGTAGAGCATCACCATGATCCTG

Experiments:
thrombin = thrombin (human, UniProt P00734;P00734 328-363;364-622); test: FAM fluorescence recovery on GO array
PDGF-BB = PDGF-BB (human, UniProt P01127 82-190); test: FAM fluorescence recovery on GO array
Sequence of PDGF-BB (P01127 82-190): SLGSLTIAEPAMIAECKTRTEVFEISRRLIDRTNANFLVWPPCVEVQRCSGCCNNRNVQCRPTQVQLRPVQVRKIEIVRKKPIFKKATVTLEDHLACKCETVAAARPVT

Binder	binding result (thrombin)	binding result (PDGF-BB)
B1	binds	–
B2	–	binds
